The subject of data set [1] is β-conglutin (lupin (species not stated)). The data set can be described thus: MST. Particulars: 0.05% Tween-20, 25 C, Hill EC50 fit, PBS (10 mM phosphate, 135 mM NaCl, 2.7 mM KCl, pH 7.4) + 1.5 mM MgCl2, MST +0.05% Tween-20, 25 C (20 mM KCl for TT derivatives), BLI +0.1% Tween-20, 30 C, SPR ….
The test system is the same in data set [2]. The data set can be described thus: SPR. The settings on record: 1:1 kinetic model, protein immobilized, PBS (10 mM phosphate, 135 mM NaCl, 2.7 mM KCl, pH 7.4) + 1.5 mM MgCl2, MST +0.05% Tween-20, 25 C (20 mM KCl for TT derivatives), BLI +0.1% Tween-20, 30 C.
Data set [3] shares this test system. The data set is described as follows: BLI. The settings on record: 2:1 heterogeneous model, 30 C, 0.1% Tween-20, 5' TEG spacer, PBS (10 mM phosphate, 135 mM NaCl, 2.7 mM KCl, pH 7.4) + 1.5 mM MgCl2, MST +0.05% Tween-20, 25 C (20 mM KCl for TT derivatives), BLI +0.1% Tween-20, 30 C, SPR ….

One may read the Kd as the equilibrium constant for the complex coming apart.

With GGTGGGGGTGG [Cy5-11-mer], the Kd in data set [1] (binding buffer) came out at 1.05 nM. For GGTGGGGGTGGTT [11-mer-TT], the Kd in data set [2] came to 84.9 nM.

Take GGTGGGGGTGGTT [Cy5-11-mer-TT]: the Kd in data set [1] (20 mM KCl) was found to be 2.59 nM.

With TTGGTGGGGGTGG [Cy5-TT-11-mer], the Kd in data set [1] (20 mM KCl) came to 1.88 nM. Regarding TTGGTGGGGGTGG [TT-11-mer], the Kd in data set [2] is 7.28 nM. As for TTGGTGGGGGTGGTT [Cy5-TT-11-mer-TT], the dissociation constant Kd in data set [1] (20 mM KCl) came out at 2.71 nM. With TTGGTGGGGGTGGTT [TT-11-mer-TT], the Kd in data set [2] amounted to 53.7 nM.

Regarding “TTTTTTTTTTTTTTTGGTGGGGGTGG [Biotin-TEG-T15-11-mer]”, the Kd is 6.95 nM in data set [3] (first KD) and 23.3 nM in data set [3] (second KD).
